Tests used:
[1] = molecular target: CsgA, the major curli subunit (recombinant, C-terminal His6-tag) (Escherichia coli) (UniProt P28307); test: SEC-MALS; freshly purified CsgA concentrated to 1.8 mg/ml, Superdex 75 10/300, miniDAWN TREOS; hexamer beside a majority of monomer
[2] = molecular target: the molecule itself; test: crystal structure; peptides with free (unmodified) termini, hanging drop, 293 K; micro-crystals, data collected at 100 K; LNIYQY and TASNSS crystals grown in a mixture with TAIVVQ of CsgB, which was not present in the crystals

| Molecule | stoichiometry N [1] | binding result [2] |
| --- | --- | --- |
| CsgA, the major curli subunit (recombinant, C-terminal His6-tag) (from UniProt P28307 21-151) (natural protein) | 6 |  |
| IYQYGG (CsgA residues 47-52 (R1 repeat), numbered on UniProt P28307; Unmodified termini for crystallography; in the seeding assay Ac-IYQYGG-NH2; also called R1 segment 47IYQYGG52; source: synthetic peptide, bought: GL Biochem (Shanghai) Ltd) [CsgA segment 47IYQYGG52 (R1 repeat)] |  | binds |
| LNIYQY (CsgA residues 45-50 (R1 repeat), numbered on UniProt P28307; Unmodified termini for crystallography; in the seeding assay Ac-LNIYQY-NH2, in the ThT assay with D-peptides capped at the C-terminus; also called R1 segment 45LNIYQY50; source: synthetic peptide, bought: GL Biochem (Shanghai) Ltd) [CsgA segment 45LNIYQY50 (R1 repeat)] |  | binds |
| VTQVGF (Unmodified termini for crystallography; in the seeding assay Ac-VTQVGF-NH2, in the ThT assay with D-peptides capped at the C-terminus; source: synthetic peptide, bought: GL Biochem (Shanghai) Ltd) [CsgA segment 137VTQVGF142 (R5 repeat)] |  | binds |
| TASNSS (Unmodified termini for crystallography; source: synthetic peptide, bought: GL Biochem (Shanghai) Ltd) [CsgA segment 129TASNSS134 (R4-R5 loop)] |  | binds |

Source: PMC6748439, “Structural Insights into Curli CsgA Cross-β Fibril Architecture Inspire Repurposing of Anti-amyloid Compounds as Anti-biofilm Agents” (PLoS Pathogens, 2019)
